Data from article PMC10641069, “Intra- and inter-molecular regulation by intrinsically-disordered regions governs PUF protein RNA binding” (Nature Communications, 2023).
Where “and” joins values, the source holds several entries; their conditions need not be identical. Equal entries are not always repeated. Where two headings read alike, the source gives them in different places.

Key:
[1] = molecular target: T1, FBF-2 RBD + CT (FBF-2 residues 164-632) (C. elegans, UniProt Q09312 164-632); assay: cell-based or functional assay
T1 sequence (looked up): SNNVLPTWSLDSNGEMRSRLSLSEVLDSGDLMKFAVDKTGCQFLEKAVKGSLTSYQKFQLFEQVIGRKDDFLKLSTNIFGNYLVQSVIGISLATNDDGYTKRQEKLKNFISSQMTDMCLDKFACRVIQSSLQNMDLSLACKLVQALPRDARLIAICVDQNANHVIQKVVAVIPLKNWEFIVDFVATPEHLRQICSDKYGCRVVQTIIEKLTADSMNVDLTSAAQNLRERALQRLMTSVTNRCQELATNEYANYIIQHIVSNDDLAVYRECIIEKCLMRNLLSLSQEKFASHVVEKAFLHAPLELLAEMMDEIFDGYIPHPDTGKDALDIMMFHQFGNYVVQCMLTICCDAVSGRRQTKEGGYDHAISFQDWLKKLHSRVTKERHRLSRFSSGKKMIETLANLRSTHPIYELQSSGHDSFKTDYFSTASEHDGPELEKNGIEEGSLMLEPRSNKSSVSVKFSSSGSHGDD

[2] = molecular target: T2, FBF-2 RBD (FBF-2 residues 164-575) (C. elegans, UniProt Q09312 164-575); assay: ITC
T2 chain: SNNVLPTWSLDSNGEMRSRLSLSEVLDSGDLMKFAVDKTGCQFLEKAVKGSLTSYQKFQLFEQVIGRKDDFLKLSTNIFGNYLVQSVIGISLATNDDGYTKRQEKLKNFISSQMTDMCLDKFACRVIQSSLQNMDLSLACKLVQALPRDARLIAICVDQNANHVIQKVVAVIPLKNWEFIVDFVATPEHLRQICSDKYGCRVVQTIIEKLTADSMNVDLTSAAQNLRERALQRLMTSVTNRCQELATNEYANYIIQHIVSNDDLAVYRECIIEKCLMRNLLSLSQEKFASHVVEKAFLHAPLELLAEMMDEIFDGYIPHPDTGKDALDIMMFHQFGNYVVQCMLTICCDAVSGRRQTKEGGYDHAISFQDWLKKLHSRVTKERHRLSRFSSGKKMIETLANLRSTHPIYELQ

[3] = molecular target: T3, FBF-2 RBD + CT L610A (C. elegans, UniProt Q09312 164-632, L610A); assay: ITC
T3 sequence: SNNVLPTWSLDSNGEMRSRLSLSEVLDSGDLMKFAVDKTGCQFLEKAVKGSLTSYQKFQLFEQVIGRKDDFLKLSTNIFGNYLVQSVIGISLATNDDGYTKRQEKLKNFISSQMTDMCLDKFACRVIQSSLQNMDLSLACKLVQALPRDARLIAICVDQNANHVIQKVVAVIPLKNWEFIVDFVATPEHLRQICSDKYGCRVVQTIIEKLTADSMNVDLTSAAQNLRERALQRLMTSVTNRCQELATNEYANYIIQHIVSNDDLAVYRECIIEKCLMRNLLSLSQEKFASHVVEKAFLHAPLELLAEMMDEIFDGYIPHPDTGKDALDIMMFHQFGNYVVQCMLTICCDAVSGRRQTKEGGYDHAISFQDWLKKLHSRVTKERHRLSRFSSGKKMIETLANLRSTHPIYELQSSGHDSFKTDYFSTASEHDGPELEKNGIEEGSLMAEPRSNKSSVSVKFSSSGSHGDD

[4] = molecular target: T4, FBF-2 RBD + CT (FBF-2 residues 164-632) (C. elegans, UniProt Q09312 164-632); assay: ITC
T4 chain: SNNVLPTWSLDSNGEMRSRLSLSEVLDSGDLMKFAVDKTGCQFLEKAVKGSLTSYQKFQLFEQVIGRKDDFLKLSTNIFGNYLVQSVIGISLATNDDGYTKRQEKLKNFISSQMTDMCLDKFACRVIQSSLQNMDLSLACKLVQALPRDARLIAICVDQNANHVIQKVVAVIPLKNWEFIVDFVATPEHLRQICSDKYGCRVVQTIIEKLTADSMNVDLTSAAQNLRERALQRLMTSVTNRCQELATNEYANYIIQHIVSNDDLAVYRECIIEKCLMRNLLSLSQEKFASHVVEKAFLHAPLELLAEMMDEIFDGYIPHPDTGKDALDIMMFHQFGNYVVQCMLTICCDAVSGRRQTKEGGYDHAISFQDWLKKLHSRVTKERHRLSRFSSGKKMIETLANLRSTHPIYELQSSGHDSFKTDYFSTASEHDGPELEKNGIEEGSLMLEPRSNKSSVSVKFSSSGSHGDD

[5] = molecular target: T2, FBF-2 RBD (FBF-2 residues 164-575); assay: ITC
[6] = molecular target: T5, FBF-2 RBD + CT Loop6A (C. elegans, UniProt Q09312 164-632, E592A | D594A | E597A | E599A | E604A | E605A); assay: ITC
T5 sequence: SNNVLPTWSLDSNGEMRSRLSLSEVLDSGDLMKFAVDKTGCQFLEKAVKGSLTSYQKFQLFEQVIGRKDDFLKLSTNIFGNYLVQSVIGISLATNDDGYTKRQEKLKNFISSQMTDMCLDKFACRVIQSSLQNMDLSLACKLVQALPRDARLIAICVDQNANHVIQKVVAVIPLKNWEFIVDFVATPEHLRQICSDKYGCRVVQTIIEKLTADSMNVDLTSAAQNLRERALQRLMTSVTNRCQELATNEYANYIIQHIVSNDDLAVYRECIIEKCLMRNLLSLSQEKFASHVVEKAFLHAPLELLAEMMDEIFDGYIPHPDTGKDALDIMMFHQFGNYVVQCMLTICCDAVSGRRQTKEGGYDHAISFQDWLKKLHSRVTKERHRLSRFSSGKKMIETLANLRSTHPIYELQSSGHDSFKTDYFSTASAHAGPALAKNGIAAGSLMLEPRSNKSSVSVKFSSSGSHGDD

[7] = molecular target: T1, FBF-2 RBD + CT (FBF-2 residues 164-632); assay: ITC; peptide (100–400 µM) titrated from the syringe into the cell containing FBF-2 (10–30 µM); 20 °C; 20 mM HEPES pH 7.4, 150 mM NaCl, 0.5 mM TCEP; no RNA; one-site model; mean of two replicates; conditions: both partners purified
[8] = molecular target: T6, FBF-2 RBD + CT L610A (C. elegans, UniProt Q09312 164-632, L610A); assay: as above; conditions: both partners purified
T6 construct: source: E. coli, expressed and purified like wild type proteins; not shown: His6-SUMO, N-terminal, cleaved
T6 sequence (looked up): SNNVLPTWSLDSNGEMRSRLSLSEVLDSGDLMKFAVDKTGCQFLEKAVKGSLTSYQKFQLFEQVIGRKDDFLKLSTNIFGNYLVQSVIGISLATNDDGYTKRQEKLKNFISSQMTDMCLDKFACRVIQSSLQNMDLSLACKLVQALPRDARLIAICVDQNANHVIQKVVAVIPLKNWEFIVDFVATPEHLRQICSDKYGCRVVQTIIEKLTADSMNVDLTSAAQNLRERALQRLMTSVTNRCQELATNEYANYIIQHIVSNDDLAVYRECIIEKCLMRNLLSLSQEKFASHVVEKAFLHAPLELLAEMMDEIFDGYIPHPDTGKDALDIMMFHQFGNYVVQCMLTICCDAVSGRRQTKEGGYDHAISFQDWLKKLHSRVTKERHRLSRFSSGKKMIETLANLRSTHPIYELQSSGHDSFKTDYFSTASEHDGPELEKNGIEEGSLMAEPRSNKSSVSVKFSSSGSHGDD

[9] = molecular target: T7, FBF-2 RBD + CT Loop6A (C. elegans, UniProt Q09312 164-632, E592A | D594A | E597A | E599A | E604A | E605A); assay: as above; conditions: both partners purified
T7 construct: source: E. coli, expressed and purified like wild type proteins; not shown: His6-SUMO, N-terminal, cleaved
T7 sequence (looked up): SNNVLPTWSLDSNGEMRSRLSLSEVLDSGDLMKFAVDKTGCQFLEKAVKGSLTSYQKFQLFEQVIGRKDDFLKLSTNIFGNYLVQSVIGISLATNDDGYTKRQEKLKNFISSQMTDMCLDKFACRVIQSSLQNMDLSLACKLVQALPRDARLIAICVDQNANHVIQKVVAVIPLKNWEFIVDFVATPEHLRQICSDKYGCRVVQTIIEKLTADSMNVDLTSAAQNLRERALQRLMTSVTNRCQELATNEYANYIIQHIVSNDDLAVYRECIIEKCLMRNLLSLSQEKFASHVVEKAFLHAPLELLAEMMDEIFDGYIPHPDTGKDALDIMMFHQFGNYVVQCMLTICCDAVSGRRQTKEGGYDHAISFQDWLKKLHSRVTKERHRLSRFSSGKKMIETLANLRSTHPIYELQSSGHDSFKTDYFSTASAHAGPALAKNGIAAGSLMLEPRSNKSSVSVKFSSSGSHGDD

B1: LST-1 B peptide (LST-1 residues 67-98) (peptide, UniProt P91820 67-98, looked up)
chain: SSSPQQRSGLRSQKLHLTYIEKNKRVRAMIPQ
notes: The tag was cleaved with Ulp1 protease; also called LST-1^67–98; source: E. coli, purified (Ni-NTA, heparin, Superdex 75); not shown: His6-SUMO, N-terminal, cleaved
- RNA-binding affinity of FBF-2 RBD + CT for gld-1 FBEa RNA by EMSA in the presence of 50 µM LST-1 B [1]: 5 fold
- Kd [2]: 50 nM
- Kd [3]: 46 nM and 77 nM
- Kd [4]: 2100 nM and 3300 nM
- Kd [5]: 46 nM and 45 nM
- Kd [6]: 1300 nM and 1100 nM
- Kd [7]: 2700 nM
- Kd [8]: 60 nM
- binding result [9]: binds
